Results published in paper PMC12172022, “Overexpression of TaPIP1A enhances drought and salt stress tolerance in Arabidopsis: cross-species conservation and molecular dynamics”.

Molecular target: MBP-TaWRKY71 (Triticum aestivum (wheat) cv. KN9204, UniProt A0A3S6GV84 1-300)
Assay: EMSA; complex signal weakened by 200-fold unlabeled competitor; LightShift chemiluminescent EMSA, 6% gel (printed as SDS-PAGE); 25 min at room temperature; probe annealed in 10 mM Tris-HCl pH 7.6, 1 mM EDTA, 50 mM NaCl; binding buffer not stated
Settings: protein: recombinant; tags: N-terminal MBP (pMALC2X); label: 5' biotin; blunt

Chain of MBP-TaWRKY71 (A0A3S6GV84 entry or part of it): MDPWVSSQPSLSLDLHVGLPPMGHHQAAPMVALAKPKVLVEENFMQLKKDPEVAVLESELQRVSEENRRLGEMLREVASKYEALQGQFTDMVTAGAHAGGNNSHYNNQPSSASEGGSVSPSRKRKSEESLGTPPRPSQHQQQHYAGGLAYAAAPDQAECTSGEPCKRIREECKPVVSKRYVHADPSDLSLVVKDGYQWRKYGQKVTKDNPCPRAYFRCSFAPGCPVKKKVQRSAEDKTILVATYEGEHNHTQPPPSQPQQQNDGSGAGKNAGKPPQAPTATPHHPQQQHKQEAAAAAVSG

B1: P-W probe (TaPIP1A promoter) (dsDNA)
DNA 1: CATGACATGACAGGTGAGGTGACACCACAAG
DNA 2: CTTGTGGTGTCACCTCACCTGTCATGTCATG
B1: binds.
